Experimental findings from the supplement of paper PMC9112550, “Optimization of the antimicrobial peptide Bac7 by deep mutational scanning” (BMC Biology, 2022) are described below.
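Note: peptides expressed intracellularly from a pBAD plasmid library in pooled LB shake-flask culture, induced with 0.3% L-arabinose, DNA abundance read by NGS, three biological replicates, DESeq2 with apeglm shrinkage.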

The data set deals with Escherichia coli TOP10. The data set is described as follows: shrunken log2 fold change of peptide-encoding DNA abundance (4.5 h post-induction vs induction); higher = less antimicrobial activity (less host growth inhibition). The settings on record: time post-induction: 4.5 h; library: site-saturation at positions 5, 18, 19, 20.
As for RRIRYRPPRLPRPRPRPKPDPRP, the “shrunken log2 fold change” value was 0.0117.
In the case of RRIRDRPPRLPRPRPRPESWPRP, the “shrunken log2 fold change” value stood at 1.58.
Then RRIRIRPPRLPRPRPRPNESPRP, with -0.243; and RRIRTRPPRLPRPRPRPHKLPRP, with -0.236; and RRIRKRPPRLPRPRPRPRANPRP, with 0.588.
As to RRIRARPPRLPRPRPRPQWQPRP, the “shrunken log2 fold change” value was -0.00057.
Then RRIRQRPPRLPRPRPRPPSGPRP, with 0.352; and RRIRCRPPRLPRPRPRPFPQPRP, with -0.265; and RRIRYRPPRLPRPRPRPGEKPRP, with 0.0799.
Regarding RRIRMRPPRLPRPRPRPHHPPRP, the “shrunken log2 fold change” value was -0.234.
Then RRIRGRPPRLPRPRPRPVHDPRP, with -0.0619; and RRIRTRPPRLPRPRPRPSDRPRP, with -0.138; and RRIRWRPPRLPRPRPRPTNAPRP, with 0.0747.
Consider RRIRVRPPRLPRPRPRPYKFPRP, for which the “shrunken log2 fold change” value was -0.475.
Next, RRIRYRPPRLPRPRPRPDTNPRP: -0.0185.
Then RRIRIRPPRLPRPRPRPARSPRP, with 0.0389; and RRIRIRPPRLPRPRPRPTCTPRP, with -0.807; and RRIRVRPPRLPRPRPRPLRVPRP, with 0.543.
Consider RRIRVRPPRLPRPRPRPLVPPRP, for which the “shrunken log2 fold change” value was -0.0493.
Then RRIRVRPPRLPRPRPRPFNPPRP, with -0.484; and RRIRQRPPRLPRPRPRPWPWPRP, with 0.0839.
Next, RRIRERPPRLPRPRPRPKPMPRP: 0.21; RRIRTRPPRLPRPRPRPAHFPRP: 0.13.
Then RRIRDRPPRLPRPRPRPEYYPRP, with -0.00627.
As to RRIRIRPPRLPRPRPRPYMGPRP, the “shrunken log2 fold change” value is -0.579.
In the case of RRIRARPPRLPRPRPRPWCPPRP, the “shrunken log2 fold change” value was -0.169.
Then RRIRFRPPRLPRPRPRPGEMPRP, with 0.123; and RRIRVRPPRLPRPRPRPCYRPRP, with -0.00925.
Then RRIRERPPRLPRPRPRPSQHPRP, with -0.49.
Take RRIRFRPPRLPRPRPRPEKYPRP: the “shrunken log2 fold change” value was -0.397.
Next, RRIRDRPPRLPRPRPRPSKRPRP: -0.273; RRIRNRPPRLPRPRPRPFPAPRP: -0.0844.
Take RRIRYRPPRLPRPRPRPYTEPRP: the “shrunken log2 fold change” value was determined as 0.034.
Then RRIRRRPPRLPRPRPRPDARPRP, with 0.553; and RRIRMRPPRLPRPRPRPQDNPRP, with 0.013; and RRIRRRPPRLPRPRPRPDWIPRP, with -0.223.
Next, RRIRFRPPRLPRPRPRPINMPRP: -0.319.
Next, RRIRLRPPRLPRPRPRPGVWPRP: 0.401; RRIRNRPPRLPRPRPRPFEFPRP: -0.0681.
Consider RRIRYRPPRLPRPRPRPHPIPRP, for which the “shrunken log2 fold change” value was -0.0356.
Then RRIRDRPPRLPRPRPRPTYKPRP, with -0.529.
Next, RRIRARPPRLPRPRPRPYQFPRP: -0.34; RRIRKRPPRLPRPRPRPDINPRP: 0.193; RRIRIRPPRLPRPRPRPAYDPRP: -0.325.
Next, RRIRPRPPRLPRPRPRPSEYPRP: -0.366.
As for RRIRRRPPRLPRPRPRPRQGPRP, the “shrunken log2 fold change” value amounted to 0.298.
Then RRIRHRPPRLPRPRPRPHCVPRP, with -0.01; and RRIRWRPPRLPRPRPRPCQWPRP, with 0.0226.
As to RRIRARPPRLPRPRPRPFVVPRP, the “shrunken log2 fold change” value is -0.312.
With RRIRERPPRLPRPRPRPMKKPRP, the “shrunken log2 fold change” value is 0.00499.
Then RRIRGRPPRLPRPRPRPRHYPRP, with 0.173; and RRIRKRPPRLPRPRPRPFVTPRP, with -0.0435.
As to RRIRTRPPRLPRPRPRPELPPRP, the “shrunken log2 fold change” value was 0.499.
Then RRIRVRPPRLPRPRPRPSRTPRP, with -0.47; and RRIRRRPPRLPRPRPRPLRRPRP, with 0.654.
Next, RRIRYRPPRLPRPRPRPHLTPRP: -0.466; RRIRPRPPRLPRPRPRPRCSPRP: 0.00477; RRIRWRPPRLPRPRPRPGFSPRP: 0.138.
Next, RRIRGRPPRLPRPRPRPTEDPRP: 1.2.
Regarding RRIRPRPPRLPRPRPRPWRIPRP, the “shrunken log2 fold change” value is -0.0585.
Next, RRIRIRPPRLPRPRPRPMRYPRP: -0.176; RRIRIRPPRLPRPRPRPFTHPRP: -0.182.
Next, RRIRYRPPRLPRPRPRPWYDPRP: -0.109.
As to RRIRIRPPRLPRPRPRPDEFPRP, the “shrunken log2 fold change” value came to 0.0764.
Then RRIRERPPRLPRPRPRPLCPPRP, with -0.393; and RRIRHRPPRLPRPRPRPWTFPRP, with -0.229; and RRIRARPPRLPRPRPRPFSMPRP, with -0.215.
Regarding RRIRKRPPRLPRPRPRPCIFPRP, the “shrunken log2 fold change” value was -0.0101.
Then RRIRMRPPRLPRPRPRPPIKPRP, with 0.288.
With RRIRSRPPRLPRPRPRPIEKPRP, the “shrunken log2 fold change” value is -0.0173.
Then RRIRFRPPRLPRPRPRPPQFPRP, with 0.0547; and RRIRERPPRLPRPRPRPEQEPRP, with -0.0107; and RRIRWRPPRLPRPRPRPWPHPRP, with 0.204.
As to RRIRCRPPRLPRPRPRPRDWPRP, the “shrunken log2 fold change” value was 0.591.
For RRIRVRPPRLPRPRPRPEAFPRP, the “shrunken log2 fold change” value was 0.143.
Next, RRIRSRPPRLPRPRPRPHHQPRP: -0.61.
Then RRIRFRPPRLPRPRPRPHDFPRP, with -0.199; and RRIRCRPPRLPRPRPRPMTSPRP, with -0.0603; and RRIRWRPPRLPRPRPRPMYQPRP, with -0.0254.
Then RRIRFRPPRLPRPRPRPHWGPRP, with -0.0695; and RRIRNRPPRLPRPRPRPRAYPRP, with 0.0694; and RRIRKRPPRLPRPRPRPNGTPRP, with -0.0678.
Take RRIRSRPPRLPRPRPRPAHIPRP: the “shrunken log2 fold change” value was -0.0188.
Next, RRIRRRPPRLPRPRPRPLSVPRP: 0.298.
Next, RRIRQRPPRLPRPRPRPYNTPRP: -0.325.
Then RRIRSRPPRLPRPRPRPKMTPRP, with 0.0901; and RRIRARPPRLPRPRPRPEWGPRP, with 1.06; and RRIRSRPPRLPRPRPRPLDCPRP, with -0.212.
Regarding RRIRPRPPRLPRPRPRPHKNPRP, the “shrunken log2 fold change” value was -0.0554.
Then RRIRNRPPRLPRPRPRPPHDPRP, with 0.114; and RRIRDRPPRLPRPRPRPLTPPRP, with 0.128; and RRIRLRPPRLPRPRPRPNCTPRP, with -0.24.
Take RRIRFRPPRLPRPRPRPLPVPRP: the “shrunken log2 fold change” value is 0.142.
Then RRIRNRPPRLPRPRPRPSHVPRP, with -0.0765; and RRIRDRPPRLPRPRPRPHAIPRP, with -0.0018; and RRIRERPPRLPRPRPRPFLPPRP, with -0.701.
RRIRTRPPRLPRPRPRPQRGPRP: the “shrunken log2 fold change” value was found to be 0.31.
Next, RRIRPRPPRLPRPRPRPLDFPRP: -0.116; RRIRMRPPRLPRPRPRPDPNPRP: 0.0963; RRIRERPPRLPRPRPRPQMHPRP: -0.634.
As to RRIRHRPPRLPRPRPRPNSWPRP, the “shrunken log2 fold change” value is 0.254.
Then RRIRWRPPRLPRPRPRPRCSPRP, with 0.362; and RRIRTRPPRLPRPRPRPELNPRP, with 0.195.
Take RRIRVRPPRLPRPRPRPYTPPRP: the “shrunken log2 fold change” value was -0.645.
RRIRRRPPRLPRPRPRPCPSPRP: the “shrunken log2 fold change” value came out at 0.0616.
Turning to RRIRGRPPRLPRPRPRPNNWPRP, the “shrunken log2 fold change” value came out at 0.121.
Then RRIRKRPPRLPRPRPRPDSCPRP, with -0.0303; and RRIRSRPPRLPRPRPRPEFDPRP, with 0.202; and RRIRSRPPRLPRPRPRPVILPRP, with -0.0746.
Next, RRIRIRPPRLPRPRPRPNVSPRP: -0.052; RRIRYRPPRLPRPRPRPFKQPRP: -1.41.
Then RRIRRRPPRLPRPRPRPMNQPRP, with 0.0252; and RRIRGRPPRLPRPRPRPLSDPRP, with 0.365.
As to RRIRRRPPRLPRPRPRPMQDPRP, the “shrunken log2 fold change” value worked out at 0.452.
Next, RRIRRRPPRLPRPRPRPFYYPRP: -0.204; RRIRARPPRLPRPRPRPMMNPRP: 0.198; RRIRARPPRLPRPRPRPYASPRP: -0.245.
Then RRIRTRPPRLPRPRPRPSMDPRP, with 2.57e-05; and RRIRERPPRLPRPRPRPSPPPRP, with -0.013; and RRIRGRPPRLPRPRPRPGIRPRP, with 0.208.
Consider RRIRVRPPRLPRPRPRPTAAPRP, for which the “shrunken log2 fold change” value is 0.09.
Next, RRIRKRPPRLPRPRPRPVPKPRP: 0.289; RRIRWRPPRLPRPRPRPSTMPRP: -0.284; RRIRGRPPRLPRPRPRPGKEPRP: 0.225.
Next, RRIRLRPPRLPRPRPRPIWIPRP: -0.134.
